Results as given in patent publication US20110166062A1 (INDIANA UNIVERSITY RESEARCH AND TECHNOLOGY, published 2011).
Bridges are numbered along the chain shown (N, C = ends). Where no end group is shown, it is not given here.

B1: mt-111 (peptide)
peptide: HSQGTFTSDYSKYLDEIHQKDFVNWLLAQ-NH2
modifications: lactam 16-20; N-terminus assumed
SMILES: CC[C@H](C)[C@@H]1NC(=O)[C@@H](NC(=O)[C@H](CC(=O)O)NC(=O)[C@H](CC(C)C)NC(=O)[C@H](Cc2ccc(O)cc2)NC(=O)[C@H](CCCCN)NC(=O)[C@H](CO)NC(=O)[C@H](Cc2ccc(O)cc2)NC(=O)[C@H](CC(=O)O)NC(=O)[C@H](CO)NC(=O)[C@@H](NC(=O)[C@H](Cc2ccccc2)NC(=O)[C@@H](NC(=O)CNC(=O)[C@H](CCC(N)=O)NC(=O)[C@H](CO)NC(=O)[C@@H](N)Cc2c[nH]cn2)[C@@H](C)O)[C@@H](C)O)CCC(=O)NCCCC[C@@H](C(=O)N[C@@H](CC(=O)O)C(=O)N[C@@H](Cc2ccccc2)C(=O)N[C@H](C(=O)N[C@@H](CC(N)=O)C(=O)N[C@@H](Cc2c[nH]c3ccccc23)C(=O)N[C@@H](CC(C)C)C(=O)N[C@@H](CC(C)C)C(=O)N[C@@H](C)C(=O)N[C@@H](CCC(N)=O)C(N)=O)C(C)C)NC(=O)[C@H](CCC(N)=O)NC(=O)[C@H](Cc2c[nH]cn2)NC1=O
B2: mt-125 (peptide)
peptide: YSQGTFTSDYSIYMDEIHQKDFVNWLLAQ-NH2
modifications: lactam 16-20; N-terminus assumed
SMILES: CC[C@H](C)[C@H](NC(=O)[C@H](CO)NC(=O)[C@H](Cc1ccc(O)cc1)NC(=O)[C@H](CC(=O)O)NC(=O)[C@H](CO)NC(=O)[C@@H](NC(=O)[C@H](Cc1ccccc1)NC(=O)[C@@H](NC(=O)CNC(=O)[C@H](CCC(N)=O)NC(=O)[C@H](CO)NC(=O)[C@@H](N)Cc1ccc(O)cc1)[C@@H](C)O)[C@@H](C)O)C(=O)N[C@@H](Cc1ccc(O)cc1)C(=O)N[C@@H](CCSC)C(=O)N[C@@H](CC(=O)O)C(=O)N[C@H]1CCC(=O)NCCCC[C@@H](C(=O)N[C@@H](CC(=O)O)C(=O)N[C@@H](Cc2ccccc2)C(=O)N[C@H](C(=O)N[C@@H](CC(N)=O)C(=O)N[C@@H](Cc2c[nH]c3ccccc23)C(=O)N[C@@H](CC(C)C)C(=O)N[C@@H](CC(C)C)C(=O)N[C@@H](C)C(=O)N[C@@H](CCC(N)=O)C(N)=O)C(C)C)NC(=O)[C@H](CCC(N)=O)NC(=O)[C@H](Cc2c[nH]cn2)NC(=O)[C@H]([C@@H](C)CC)NC1=O
B3: mt-128 (peptide)
peptide: HSQGTFTSDYSKYLDEIHQKDFIAWLMNGGPSSGAPPPS-NH2
modifications: lactam 16-20; N-terminus assumed
SMILES: CC[C@H](C)[C@H](NC(=O)[C@H](Cc1ccccc1)NC(=O)[C@H](CC(=O)O)NC(=O)[C@@H]1CCCCNC(=O)CC[C@H](NC(=O)[C@H](CC(=O)O)NC(=O)[C@H](CC(C)C)NC(=O)[C@H](Cc2ccc(O)cc2)NC(=O)[C@H](CCCCN)NC(=O)[C@H](CO)NC(=O)[C@H](Cc2ccc(O)cc2)NC(=O)[C@H](CC(=O)O)NC(=O)[C@H](CO)NC(=O)[C@@H](NC(=O)[C@H](Cc2ccccc2)NC(=O)[C@@H](NC(=O)CNC(=O)[C@H](CCC(N)=O)NC(=O)[C@H](CO)NC(=O)[C@@H](N)Cc2c[nH]cn2)[C@@H](C)O)[C@@H](C)O)C(=O)N[C@@H]([C@@H](C)CC)C(=O)N[C@@H](Cc2c[nH]cn2)C(=O)N[C@@H](CCC(N)=O)C(=O)N1)C(=O)N[C@@H](C)C(=O)N[C@@H](Cc1c[nH]c2ccccc12)C(=O)N[C@@H](CC(C)C)C(=O)N[C@@H](CCSC)C(=O)N[C@@H](CC(N)=O)C(=O)NCC(=O)NCC(=O)N1CCC[C@H]1C(=O)N[C@@H](CO)C(=O)N[C@@H](CO)C(=O)NCC(=O)N[C@@H](C)C(=O)N1CCC[C@H]1C(=O)N1CCC[C@H]1C(=O)N1CCC[C@H]1C(=O)N[C@@H](CO)C(N)=O
B4: mt-120 (peptide)
peptide: YSQGTFTSDYSKYLDEQAAKEFIAWLMNGGPSSGAPPPS-NH2
modifications: lactam 16-20; N-terminus assumed
SMILES: CC[C@H](C)[C@H](NC(=O)[C@H](Cc1ccccc1)NC(=O)[C@H](CCC(=O)O)NC(=O)[C@@H]1CCCCNC(=O)CC[C@H](NC(=O)[C@H](CC(=O)O)NC(=O)[C@H](CC(C)C)NC(=O)[C@H](Cc2ccc(O)cc2)NC(=O)[C@H](CCCCN)NC(=O)[C@H](CO)NC(=O)[C@H](Cc2ccc(O)cc2)NC(=O)[C@H](CC(=O)O)NC(=O)[C@H](CO)NC(=O)[C@@H](NC(=O)[C@H](Cc2ccccc2)NC(=O)[C@@H](NC(=O)CNC(=O)[C@H](CCC(N)=O)NC(=O)[C@H](CO)NC(=O)[C@@H](N)Cc2ccc(O)cc2)[C@@H](C)O)[C@@H](C)O)C(=O)N[C@@H](CCC(N)=O)C(=O)N[C@@H](C)C(=O)N[C@@H](C)C(=O)N1)C(=O)N[C@@H](C)C(=O)N[C@@H](Cc1c[nH]c2ccccc12)C(=O)N[C@@H](CC(C)C)C(=O)N[C@@H](CCSC)C(=O)N[C@@H](CC(N)=O)C(=O)NCC(=O)NCC(=O)N1CCC[C@H]1C(=O)N[C@@H](CO)C(=O)N[C@@H](CO)C(=O)NCC(=O)N[C@@H](C)C(=O)N1CCC[C@H]1C(=O)N1CCC[C@H]1C(=O)N1CCC[C@H]1C(=O)N[C@@H](CO)C(N)=O
B5: mt-115 (peptide)
peptide: HSQGTFTSDYSKYLDEIHQKDFVNWLLAGGPSSGAPPPS-NH2
modifications: lactam 16-20; N-terminus assumed
SMILES: CC[C@H](C)[C@@H]1NC(=O)[C@@H](NC(=O)[C@H](CC(=O)O)NC(=O)[C@H](CC(C)C)NC(=O)[C@H](Cc2ccc(O)cc2)NC(=O)[C@H](CCCCN)NC(=O)[C@H](CO)NC(=O)[C@H](Cc2ccc(O)cc2)NC(=O)[C@H](CC(=O)O)NC(=O)[C@H](CO)NC(=O)[C@@H](NC(=O)[C@H](Cc2ccccc2)NC(=O)[C@@H](NC(=O)CNC(=O)[C@H](CCC(N)=O)NC(=O)[C@H](CO)NC(=O)[C@@H](N)Cc2c[nH]cn2)[C@@H](C)O)[C@@H](C)O)CCC(=O)NCCCC[C@@H](C(=O)N[C@@H](CC(=O)O)C(=O)N[C@@H](Cc2ccccc2)C(=O)N[C@H](C(=O)N[C@@H](CC(N)=O)C(=O)N[C@@H](Cc2c[nH]c3ccccc23)C(=O)N[C@@H](CC(C)C)C(=O)N[C@@H](CC(C)C)C(=O)N[C@@H](C)C(=O)NCC(=O)NCC(=O)N2CCC[C@H]2C(=O)N[C@@H](CO)C(=O)N[C@@H](CO)C(=O)NCC(=O)N[C@@H](C)C(=O)N2CCC[C@H]2C(=O)N2CCC[C@H]2C(=O)N2CCC[C@H]2C(=O)N[C@@H](CO)C(N)=O)C(C)C)NC(=O)[C@H](CCC(N)=O)NC(=O)[C@H](Cc2c[nH]cn2)NC1=O
B6: mt-124 (peptide)
peptide: HSQGTFTSDYSIYMDEIHQKDFVNWLLAQ-NH2
modifications: lactam 16-20; N-terminus assumed
SMILES: CC[C@H](C)[C@H](NC(=O)[C@H](CO)NC(=O)[C@H](Cc1ccc(O)cc1)NC(=O)[C@H](CC(=O)O)NC(=O)[C@H](CO)NC(=O)[C@@H](NC(=O)[C@H](Cc1ccccc1)NC(=O)[C@@H](NC(=O)CNC(=O)[C@H](CCC(N)=O)NC(=O)[C@H](CO)NC(=O)[C@@H](N)Cc1c[nH]cn1)[C@@H](C)O)[C@@H](C)O)C(=O)N[C@@H](Cc1ccc(O)cc1)C(=O)N[C@@H](CCSC)C(=O)N[C@@H](CC(=O)O)C(=O)N[C@H]1CCC(=O)NCCCC[C@@H](C(=O)N[C@@H](CC(=O)O)C(=O)N[C@@H](Cc2ccccc2)C(=O)N[C@H](C(=O)N[C@@H](CC(N)=O)C(=O)N[C@@H](Cc2c[nH]c3ccccc23)C(=O)N[C@@H](CC(C)C)C(=O)N[C@@H](CC(C)C)C(=O)N[C@@H](C)C(=O)N[C@@H](CCC(N)=O)C(N)=O)C(C)C)NC(=O)[C@H](CCC(N)=O)NC(=O)[C@H](Cc2c[nH]cn2)NC(=O)[C@H]([C@@H](C)CC)NC1=O

The binders below were run against T1, GIP receptor (UniProt P48546 22-466) (assay: cell-based or functional assay).
T1 sequence (looked up): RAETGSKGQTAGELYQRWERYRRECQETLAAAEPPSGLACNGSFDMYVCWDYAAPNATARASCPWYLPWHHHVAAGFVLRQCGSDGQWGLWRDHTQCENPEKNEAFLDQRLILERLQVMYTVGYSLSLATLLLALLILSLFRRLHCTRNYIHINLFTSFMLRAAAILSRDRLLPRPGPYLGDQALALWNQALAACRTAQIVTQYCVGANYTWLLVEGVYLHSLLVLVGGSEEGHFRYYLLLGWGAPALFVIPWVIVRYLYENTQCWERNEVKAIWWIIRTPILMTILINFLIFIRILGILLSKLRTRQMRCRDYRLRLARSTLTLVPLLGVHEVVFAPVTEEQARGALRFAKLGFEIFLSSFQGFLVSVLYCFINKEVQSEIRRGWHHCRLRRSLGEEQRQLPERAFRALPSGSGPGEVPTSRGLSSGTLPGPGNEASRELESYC

| Binder | EC50 [nM] | relative activity [%] |
| --- | --- | --- |
| YSQGTFTSDYSKYLDEIHQKDFVNWLLAGGPSSGAPPPS-NH2 [mt-116] | 0.617 | 7.62 |
| B1 | 6.26 | 0.78 |
| YSQGTFTSDYSKYLDEIHQKEFVNWLLAQ-NH2 [mt-118] | 0.736 | 6.39 |
| B2 | 0.275 | 19.6 |
| B3 | 14.6 | 0.42 |
| B4 | 2.62 | 1.81 |
| B5 | 3.58 | 1.31 |
| B6 | 5.79 | 0.95 |

Each binder was assayed against GLP-1 receptor (UniProt P43220 24-463, limits assumed) (assay: cell-based or functional assay).

| Binder | EC50 [nM] | relative activity [%] |
| --- | --- | --- |
| YSQGTFTSDYSKYLDEIHQKDFVNWLLAGGPSSGAPPPS-NH2 [mt-116] | 3.8 | 1.07 |
| B1 | 0.66 | 10.6 |
| YSQGTFTSDYSKYLDEIHQKEFVNWLLAQ-NH2 [mt-118] | 1.28 | 2.34 |
| B2 | 1.26 | 3.17 |
| B3 | 0.12 | 33.3 |
| B4 | 0.399 | 13.4 |
| B5 | 0.15 | 20 |
| B6 | 0.04 | 100 |

The binders below were run against glucagon receptor (UniProt P47871 26-477, limits assumed) (assay: cell-based or functional assay).
Sequence of glucagon receptor (P47871 26-477 limits assumed): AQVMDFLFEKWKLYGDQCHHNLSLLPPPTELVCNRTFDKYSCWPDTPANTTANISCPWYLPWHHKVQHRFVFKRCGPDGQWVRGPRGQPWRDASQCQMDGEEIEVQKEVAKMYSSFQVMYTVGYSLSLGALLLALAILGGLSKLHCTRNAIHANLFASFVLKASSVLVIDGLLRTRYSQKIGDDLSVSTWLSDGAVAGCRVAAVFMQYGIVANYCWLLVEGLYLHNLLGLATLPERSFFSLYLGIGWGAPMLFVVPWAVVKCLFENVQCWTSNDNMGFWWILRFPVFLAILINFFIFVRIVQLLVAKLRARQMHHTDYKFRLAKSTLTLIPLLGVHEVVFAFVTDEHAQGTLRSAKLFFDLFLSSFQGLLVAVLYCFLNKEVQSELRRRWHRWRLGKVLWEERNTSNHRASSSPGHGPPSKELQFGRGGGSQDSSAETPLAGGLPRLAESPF

| Binder | EC50 [nM] | relative activity [%] |
| --- | --- | --- |
| YSQGTFTSDYSKYLDEIHQKDFVNWLLAGGPSSGAPPPS-NH2 [mt-116] | 0.787 | 18.7 |
| B1 | 0.27 | 85.2 |
| YSQGTFTSDYSKYLDEIHQKEFVNWLLAQ-NH2 [mt-118] | 0.04 | 125 |
| B2 | 5.74 | 9.06 |
| B3 | 0.773 | 11.1 |
| B4 | 0.074 | 259 |
| B5 | 0.44 | 11.4 |
| B6 | 2.43 | 8.64 |
